Biological target: prolactin (PRL), human, untagged (serum PRL; PRL used in cell cultures) (human, UniProt P01229)
Assay: cell-based or functional assay

PRL-driven growth of Nb2 cells (3H-thymidine): ≤ 8 fold
B1: His-tagged cyclophilin B (CypB), recombinant, purified from Drosophila S2 cells (enzyme, not shown: small tags and cut ends)
chain: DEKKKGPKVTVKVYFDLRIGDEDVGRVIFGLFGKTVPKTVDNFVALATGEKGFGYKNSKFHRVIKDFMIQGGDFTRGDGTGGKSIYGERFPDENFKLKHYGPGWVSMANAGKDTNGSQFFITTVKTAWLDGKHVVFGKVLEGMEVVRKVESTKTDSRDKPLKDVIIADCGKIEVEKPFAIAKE

Source: patent publication US7105306 (University of Pennsylvania, dated 2006)
